Measured values from patent US20220160939A1, “SELF-ASSEMBLING PEPTIDES AS BRONCHIAL OBSTRUCTION AGENTS” (3-D MATRIX, LTD., priority 2014, published 2022).
Where no end group is shown, it is not given here.

Key:
[1] = Rheological properties of peptide solutions at adjusted salt ionic strength; format: physicochemical; conditions: for rheological property after adjusting ionic strength level with NaCl: NaCl to 0.7 M (PuraMatrix), 0.2 M (KLD12) or 0.02 M (IEIK13); for rheological property after adjusting ionic strength level with NaCl / ionic strength up to which the rheological property of 1% solutions increases (decreases above): 1% solutions; for ionic strength up to which the rheological property of 1% solutions increases (decreases above): storage modulus at 1 rad/sec
Description: Based on the visual observation of the effect of salt ionic strength on the properties of the peptide solutions, the effect on the rheological properties of the peptide solutions after adjusting their ionic strength level with NaCl to 0.7 M (PuraMatrix® (SEQ ID NO:1)), 0.2 M (KLD12 (SEQ ID NO:3)) or 0.02 M (IEIK13 (SEQ ID NO:2)), which is closely below the critical ionic strength at which each peptide becomes cloudy, was evaluated. If the ionic strength levels with NaCl of peptide solutions are higher than 0.9 M (PuraMatrix® (SEQ ID NO:1)), 0.3 M (KLD12 (SEQ ID NO:3)) or 0.03 M (IEIK13 (SEQ ID NO:2)), the peptide solutions begin phase separation becoming cloudy and weak. The rheological property of PuraMatrix® (SEQ ID NO:1), KLD12 (SEQ ID NO:3) and IEIK13 (SEQ ID NO:2) solutions was higher after adjusting their ionic strength level with NaCl to 0.7 M (PuraMatrix® (SEQ ID NO:1)), 0.2 M (KLD12 (SEQ ID NO:3)) or 0.02 M (IEIK13 (SEQ ID NO:2)). The results are shown in FIG. 10 for KLD12 (SEQ ID NO:3) 1%, FIG. 11 for IEIK13 (SEQ ID NO:2) 1%, and FIG. 12 for PuraMatrix® (SEQ ID NO:1) 1%, respectively. Frequency sweep tests were performed from 1 rad/s to 10 rad/s at 1 Pa.
Based on the results of the effect on the rheological properties of the peptide solutions after adjusting their ionic strength level with NaCl to 0.7 M (PuraMatrix® (SEQ ID NO:1)), 0.2 M (KLD12 (SEQ ID NO:3)) or 0.02 M (IEIK13 (SEQ ID NO:2)), the effect on the rheological properties of the peptide solution at various salt ionic strengths was evaluated. […] The results are shown in FIG. 13 for PuraMatrix® (SEQ ID NO:1) 1% solutions and in FIG. 14 for IEIK13 (SEQ ID NO:2) 1% solutions. Frequency sweep tests were performed from 1 rad/sec to 10 rad/sec at 1 Pa and the storage modulus at 1 rad/sec was selected for data.
Based on the results of the effect on the rheological properties of the peptide solutions and hydrogels after adjusting their ionic strength levels with NaCl, the effect of various salts (KCl, MgCl2, and CaCl2) was also evaluated. The rheological property of PuraMatrix® (SEQ ID NO:1) solutions increases with ionic strength adjustment at 0.15 M of all the salts. Increases of the rheological property of PuraMatrix® (SEQ ID NO:1) solutions with various salts were not predominantly different. However, increases of the rheological property of PuraMatrix® (SEQ ID NO:1) solutions may vary depending on the salting out constant, K of each salt. Constant K is a constant in Cohen's equation: log S=B−KI, where S is solubility, B is idealized solubility, K is salting out constant, and I is ionic strength. With a higher value of constant K and ionic strength of salts, solubility of the peptide may decrease resulting in strong peptide self-assembly with increased hydrophobic effect and higher rheological properties of the peptide solution. The constant K of NaCl may be higher than the other salts. […] The results are shown in FIG. 17 for PuraMatrix® (SEQ ID NO:1) 1% solution before DMEM treatment, and in FIG. 18 for PuraMatrix® (SEQ ID NO:1) 1% hydrogels after DMEM treatment for 10 min Frequency sweep tests were performed from 1 rad/sec to 10 rad/sec at 1 Pa and the storage modulus at 1 rad/sec was selected for data.

[2] = Rheological properties of pH adjusted peptide solutions; format: physicochemical; conditions: for rheological properties of solutions at pH 3.4: pH adjusted vs not adjusted, KLD12 1%, IEIK13 1%, PuraMatrix 1% and 2.5%
Description: Based on the visual observation of the effect of pH level on the properties of the peptide solutions, the effect on the rheological properties of the peptide solutions after adjusting their pH level to 3.4 (PuraMatrix® (SEQ ID NO:1) and KLD12 (SEQ ID NO:3)) or 3.7 (IEIK13 (SEQ ID NO:2)) was evaluated. If the pH levels of peptide solutions are higher than 3.5 (PuraMatrix® (SEQ ID NO:1) and KLD12 (SEQ ID NO:3)) or 3.7 (IEIK13 (SEQ ID NO:2)), the peptide solution began phase separation becoming cloudy. The rheological properties of PuraMatrix® (SEQ ID NO:1), KLD12 (SEQ ID NO:3) and IEIK13 (SEQ ID NO:2) solutions were higher at pH 3.4. The results are shown in FIG. 2 for KLD12 (SEQ ID NO:3) 1%, FIG. 3 for IEIK13 (SEQ ID NO:2) 1%, and FIGS. 4-5 for PuraMatrix® (SEQ ID NO:1) 1% and 2.5%, respectively. Stress sweep tests were performed at 10 rad/s. Frequency sweep tests were performed at 1 Pa.
Based on the results of the effect on the rheological properties of the peptide solutions after adjusting their pH level to 3.4 (PuraMatrix® (SEQ ID NO:1) and KLD12 (SEQ ID NO:3)) or 3.7 (IEIK13 (SEQ ID NO:2)), the effect on the rheological properties of the peptide solutions at various pH levels was evaluated. […] The rheological properties of peptides were evaluated at various concentrations using a rheometer (DHR-1, TA Instruments) with 20 mm plates. The results are shown in FIG. 6A for PuraMatrix® (SEQ ID NO:1) 2.5% solution and FIG. 6B for IEIK13 (SEQ ID NO:2) 1.5% solution, respectively. Frequency sweep tests were performed from 1 rad/sec to 10 rad/sec at 1 Pa and the storage modulus at 1 rad/sec was selected for data.

Substance: KLDLKLDLKLDL [KLD12]
- ionic strength level with NaCl above which solutions begin phase separation becoming cloudy and weak [1]: > 0.3 M
- rheological property after adjusting ionic strength level with NaCl [1]: higher
- rheological properties of solutions at pH 3.4 [2]: higher

Substance: Arg-Ala-Asp-Ala-Arg-Ala-Asp-Ala-Arg-Ala-Asp-Ala-Arg-Ala-Asp-Ala [PuraMatrix ®]
- rheological property of solutions with ionic strength adjustment ([1]; 0.15 M ionic strength of all the salts (NaCl, KCl, MgCl2, CaCl2), 1% solution): increases
- rheological property of solutions with NaCl versus KCl and CaCl2 ([1]; 0.15 M ionic strength, 1% solution): slightly higher
- ionic strength up to which the rheological property of 1% solutions increases (decreases above) [1]: up to 0.7 M
- ionic strength level with NaCl above which solutions begin phase separation becoming cloudy and weak [1]: higher than 0.9 M
- rheological property after adjusting ionic strength level with NaCl [1]: higher
- rheological properties of solutions at pH 3.4 [2]: higher

Substance: Ile-Glu-Ile-Lys-Ile-Glu-Ile-Lys-Ile-Glu-Ile-Lys-Ile [IEIK13]
- ionic strength up to which the rheological property of 1% solutions increases (decreases above) [1]: up to 0.03 M
- ionic strength level with NaCl above which solutions begin phase separation becoming cloudy and weak [1]: > 0.03 M
- rheological property after adjusting ionic strength level with NaCl [1]: higher
- pH level above which the peptide solution began phase separation becoming cloudy [2]: > 3.7
- rheological properties of solutions at pH 3.4 [2]: higher
